Experimental data as given in IntAct's records for PubMed 31515488.

B1: Tuftelin-interacting protein 11 (Homo sapiens), Q9UBB9 (parent)
chain: MSLSHLYRDGEGRIDDDDDERENFEITDWDLQNEFNPNRQRHWQTKEEATYGVWAERDSDDERPSFGGKRARDYSAPVNFISAGLKKGAAEEAELEDSDDEEKPVKQDDFPKDFGPRKLKTGGNFKPSQKGFAGGTKSFMDFGSWERHTKGIGQKLLQKMGYVPGRGLGKNAQGIINPIEAKQRKGKGAVGAYGSERTTQSMQDFPVVDSEEEAEEEFQKELSQWRKDPSGSKKKPKYSYKTVEELKAKGRISKKLTAPQKELSQVKVIDMTGREQKVYYSYSQISHKHNVPDDGLPLQSQQLPQSGKEAKAPGFALPELEHNLQLLIDLTEQEIIQNDRQLQYERDMVVNLFHELEKMTEVLDHEERVISNLSKVLEMVEECERRMQPDCSNPLTLDECARIFETLQDKYYEEYRMSDRVDLAVAIVYPLMKEYFKEWDPLKDCTYGTEIISKWKSLLENDQLLSHGGQDLSADAFHRLIWEVWMPFVRNIVTQWQPRNCDPMVDFLDSWVHIIPVWILDNILDQLIFPKLQKEVENWNPLTDTVPIHSWIHPWLPLMQARLEPLYSPIRSKLSSALQKWHPSDSSAKLILQPWKDVFTPGSWEAFMVKNIVPKLGMCLGELVINPHQQHMDAFYWVIDWEGMISVSSLVGLLEKHFFPKWLQVLCSWLSNSPNYEEITKWYLGWKSMFSDQVLAHPSVKDKFNEALDIMNRAVSSNVGAYMQPGARENIAYLTHTERRKDFQYEAMQERREAENMAQRGIGVAASSVPMNFKDLIETKAEEHNIVFMPVIGKRHEGKQLYTFGRIVIYIDRGVVFVQGEKTWVPTSLQSLIDMAK
partner: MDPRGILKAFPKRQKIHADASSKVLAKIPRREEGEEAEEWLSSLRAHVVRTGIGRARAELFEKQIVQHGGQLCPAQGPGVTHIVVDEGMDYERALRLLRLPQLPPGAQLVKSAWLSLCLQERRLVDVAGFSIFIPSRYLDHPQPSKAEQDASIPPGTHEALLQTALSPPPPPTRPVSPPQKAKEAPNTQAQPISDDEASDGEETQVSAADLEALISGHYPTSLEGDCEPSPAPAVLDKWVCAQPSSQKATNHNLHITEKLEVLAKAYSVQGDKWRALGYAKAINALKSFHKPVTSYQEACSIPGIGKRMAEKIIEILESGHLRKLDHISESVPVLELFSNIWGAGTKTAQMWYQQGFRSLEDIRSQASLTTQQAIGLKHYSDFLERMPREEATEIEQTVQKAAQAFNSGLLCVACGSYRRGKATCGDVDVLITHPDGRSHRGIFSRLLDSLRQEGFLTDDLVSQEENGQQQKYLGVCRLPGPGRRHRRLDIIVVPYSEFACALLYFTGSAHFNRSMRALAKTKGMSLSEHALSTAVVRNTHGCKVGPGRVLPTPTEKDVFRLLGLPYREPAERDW
B2: Tuftelin-interacting protein 11 (Homo sapiens), Q9UBB9 (parent)
chain: B1 chain
partner: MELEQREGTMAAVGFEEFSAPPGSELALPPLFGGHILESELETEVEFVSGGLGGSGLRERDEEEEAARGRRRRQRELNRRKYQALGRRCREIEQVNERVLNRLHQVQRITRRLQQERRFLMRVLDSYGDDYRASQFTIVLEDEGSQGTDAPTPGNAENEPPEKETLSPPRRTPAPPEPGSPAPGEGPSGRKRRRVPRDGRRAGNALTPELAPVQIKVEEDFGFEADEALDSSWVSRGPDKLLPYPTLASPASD
B3: E3 ubiquitin-protein ligase Midline-1 (Homo sapiens), O15344 (parent)
chain: METLESELTCPICLELFEDPLLLPCAHSLCFNCAHRILVSHCATNESVESITAFQCPTCRHVITLSQRGLDGLKRNVTLQNIIDRFQKASVSGPNSPSETRRERAFDANTMTSAEKVLCQFCDQDPAQDAVKTCVTCEVSYCDECLKATHPNKKPFTGHRLIEPIPDSHIRGLMCLEHEDEKVNMYCVTDDQLICALCKLVGRHRDHQVAALSERYDKLKQNLESNLTNLIKRNTELETLLAKLIQTCQHVEVNASRQEAKLTEECDLLIEIIQQRRQIIGTKIKEGKVMRLRKLAQQIANCKQCIERSASLISQAEHSLKENDHARFLQTAKNITERVSMATASSQVLIPEINLNDTFDTFALDFSREKKLLECLDYLTAPNPPTIREELCTASYDTITVHWTSDDEFSVVSYELQYTIFTGQANVVSLCNSADSWMIVPNIKQNHYTVHGLQSGTKYIFMVKAINQAGSRSSEPGKLKTNSQPFKLDPKSAHRKLKVSHDNLTVERDESSSKKSHTPERFTSQGSYGVAGNVFIDSGRHYWEVVISGSTWYAIGLAYKSAPKHEWIGKNSASWALCRCNNNWVVRHNSKEIPIEPAPHLRRVGILLDYDNGSIAFYDALNSIHLYTFDVAFAQPVCPTFTVWNKCLTIITGLPIPDHLDCTEQLP
partner: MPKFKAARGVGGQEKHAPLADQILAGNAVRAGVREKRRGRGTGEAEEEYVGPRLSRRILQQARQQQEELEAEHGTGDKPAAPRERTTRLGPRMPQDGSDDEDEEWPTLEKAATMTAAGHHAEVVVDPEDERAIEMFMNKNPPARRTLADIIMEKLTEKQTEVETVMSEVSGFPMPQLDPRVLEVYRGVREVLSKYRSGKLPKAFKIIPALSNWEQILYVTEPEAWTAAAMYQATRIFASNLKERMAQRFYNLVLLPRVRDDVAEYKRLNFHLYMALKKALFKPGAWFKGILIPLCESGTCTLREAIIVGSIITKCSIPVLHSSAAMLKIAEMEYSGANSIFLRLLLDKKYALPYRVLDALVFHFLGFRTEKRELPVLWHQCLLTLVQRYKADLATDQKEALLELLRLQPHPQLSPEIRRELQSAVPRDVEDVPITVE
B4: Zinc finger protein 544 (Homo sapiens), Q6NX49 (parent)
chain: MEARSMLVPPQASVCFEDVAMAFTQEEWEQLDLAQRTLYREVTLETWEHIVSLGLFLSKSDVISQLEQEEDLCRAEQEAPRDWKATLEENRLNSEKDRAREELSHHVEVYRSGPEEPPSLVLGKVQDQSNQLREHQENSLRFMVLTSERLFAQREHCELELGGGYSLPSTLSLLPTTLPTSTGFPKPNSQVKELKQNSAFINHEKNGADGKHCESHQCARAFCQSIYLSKLGNVETGKKNPYEYIVSGDSLNYGSSLCFHGRTFSVKKSDDCKDYGNLFSHSVSLNEQKPVHFGKSQYECDECRETCSESLCLVQTERSGPGETPFRCEERCAAFPMASSFSDCNIIQTTEKPSVCNQCGKSFSCCKLIHQRTHTGEKPFECTQCGKSFSQSYDLVIHQRTHTGEKPYECDLCGKSFTQRSKLITHQRIHTGEKPYQCIECRKSFRWNSNLIVHQRIHTGEKPYECTHCGKSFSQSYELVTHKRTHTGEKPFKCTQCGKSFSQKYDLVVHQRTHTGEKPYECNLCGKSFSQSSKLITHQRIHTGEKPYQCIECGKSFRWNSNLVIHQRIHTGEKPYDCTHCGKSFSQSYQLVAHKRTHTGEKPYECNECGKAFNRSTQLIRHLQIHTGEKPYKCNQCNKAFARSSYLVMHQRTHTGEKPFECSQCGKAFSGSSNLLSHHRIHSGEKPYECSDCGKSFRQQSQLVVHRRTHTGEKP
B5: Isoform 1 of Aminoacylase-1 (Homo sapiens), Q03154-1 (parent)
chain: MTSKGPEEEHPSVTLFRQYLRIRTVQPKPDYGAAVAFFEETARQLGLGCQKVEVAPGYVVTVLTWPGTNPTLSSILLNSHTDVVPVFKEHWSHDPFEAFKDSEGYIYARGAQDMKCVSIQYLEAVRRLKVEGHRFPRTIHMTFVPDEEVGGHQGMELFVQRPEFHALRAGFALDEGIANPTDAFTVFYSERSPWWVRVTSTGRPGHASRFMEDTAAEKLHKVVNSILAFREKEWQRLQSNPHLKEGSVTSVNLTKLEGGVAYNVIPATMSASFDFRVAPDVDFKAFEEQLQSWCQAAGEGVTLEFAQKWMHPQVTPTDDSNPWWAAFSRVCKDMNLTLEPEIMPAATDNRYIRAVGVPALGFSPMNRTPVLLHDHDERLHEAVFLRGVDIYTRLLPALASVPALPSDS
partner: B5 chain
B6: Notch homolog 2 N-terminal-like protein A (Homo sapiens), Q7Z3S9 (parent)
chain: MCVTYHNGTGYCKCPEGFLGEYCQHRDPCEKNRCQNGGTCVAQAMLGKATCRCASGFTGEDCQYSTSHPCFVSRPCLNGGTCHMLSRDTYECTCQVGFTGKECQWTDACLSHPCANGSTCTTVANQFSCKCLTGFTGQKCETDVNECDIPGHCQHGGTCLNLPGSYQCQCLQGFTGQYCDSLYVPCAPSPCVNGGTCRQTGDFTFECNCLPETVRRGTELWERDREVWNGKEHDEN
partner: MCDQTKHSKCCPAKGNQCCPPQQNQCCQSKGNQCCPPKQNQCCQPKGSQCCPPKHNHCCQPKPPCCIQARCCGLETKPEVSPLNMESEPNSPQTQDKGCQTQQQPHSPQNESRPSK
B7: Myogenin (Homo sapiens), P15173 (parent)
chain: MELYETSPYFYQEPRFYDGENYLPVHLQGFEPPGYERTELTLSPEAPGPLEDKGLGTPEHCPGQCLPWACKVCKRKSVSVDRRRAATLREKRRLKKVNEAFEALKRSTLLNPNQRLPKVEILRSAIQYIERLQALLSSLNQEERDLRYRGGGGPQPGVPSECSSHSASCSPEWGSALEFSANPGDHLLTADPTDAHNLHSLTSIVDSITVEDVSVAFPDETMPN
partner: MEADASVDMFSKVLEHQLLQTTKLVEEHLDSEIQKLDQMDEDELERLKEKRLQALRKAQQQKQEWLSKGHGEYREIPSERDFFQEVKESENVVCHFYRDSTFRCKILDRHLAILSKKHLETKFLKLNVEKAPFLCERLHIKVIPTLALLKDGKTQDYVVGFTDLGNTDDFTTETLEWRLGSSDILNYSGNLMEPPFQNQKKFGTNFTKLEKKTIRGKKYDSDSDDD
B8: Calcium-binding and coiled-coil domain-containing protein 2 (Homo sapiens), Q13137 (parent)
chain: MEETIKDPPTSAVLLDHCHFSQVIFNSVEKFYIPGGDVTCHYTFTQHFIPRRKDWIGIFRVGWKTTREYYTFMWVTLPIDLNNKSAKQQEVQFKAYYLPKDDEYYQFCYVDEDGVVRGASIPFQFRPENEEDILVVTTQGEVEEIEQHNKELCKENQELKDSCISLQKQNSDMQAELQKKQEELETLQSINKKLELKVKEQKDYWETELLQLKEQNQKMSSENEKMGIRVDQLQAQLSTQEKEMEKLVQGDQDKTEQLEQLKKENDHLFLSLTEQRKDQKKLEQTVEQMKQNETTAMKKQQELMDENFDLSKRLSENEIICNALQRQKERLEGENDLLKRENSRLLSYMGLDFNSLPYQVPTSDEGGARQNPGLAYGNPYSGIQESSSPSPLSIKKCPICKADDICDHTLEQQQMQPLCFNCPICDKIFPATEKQIFEDHVFCHSL
partner: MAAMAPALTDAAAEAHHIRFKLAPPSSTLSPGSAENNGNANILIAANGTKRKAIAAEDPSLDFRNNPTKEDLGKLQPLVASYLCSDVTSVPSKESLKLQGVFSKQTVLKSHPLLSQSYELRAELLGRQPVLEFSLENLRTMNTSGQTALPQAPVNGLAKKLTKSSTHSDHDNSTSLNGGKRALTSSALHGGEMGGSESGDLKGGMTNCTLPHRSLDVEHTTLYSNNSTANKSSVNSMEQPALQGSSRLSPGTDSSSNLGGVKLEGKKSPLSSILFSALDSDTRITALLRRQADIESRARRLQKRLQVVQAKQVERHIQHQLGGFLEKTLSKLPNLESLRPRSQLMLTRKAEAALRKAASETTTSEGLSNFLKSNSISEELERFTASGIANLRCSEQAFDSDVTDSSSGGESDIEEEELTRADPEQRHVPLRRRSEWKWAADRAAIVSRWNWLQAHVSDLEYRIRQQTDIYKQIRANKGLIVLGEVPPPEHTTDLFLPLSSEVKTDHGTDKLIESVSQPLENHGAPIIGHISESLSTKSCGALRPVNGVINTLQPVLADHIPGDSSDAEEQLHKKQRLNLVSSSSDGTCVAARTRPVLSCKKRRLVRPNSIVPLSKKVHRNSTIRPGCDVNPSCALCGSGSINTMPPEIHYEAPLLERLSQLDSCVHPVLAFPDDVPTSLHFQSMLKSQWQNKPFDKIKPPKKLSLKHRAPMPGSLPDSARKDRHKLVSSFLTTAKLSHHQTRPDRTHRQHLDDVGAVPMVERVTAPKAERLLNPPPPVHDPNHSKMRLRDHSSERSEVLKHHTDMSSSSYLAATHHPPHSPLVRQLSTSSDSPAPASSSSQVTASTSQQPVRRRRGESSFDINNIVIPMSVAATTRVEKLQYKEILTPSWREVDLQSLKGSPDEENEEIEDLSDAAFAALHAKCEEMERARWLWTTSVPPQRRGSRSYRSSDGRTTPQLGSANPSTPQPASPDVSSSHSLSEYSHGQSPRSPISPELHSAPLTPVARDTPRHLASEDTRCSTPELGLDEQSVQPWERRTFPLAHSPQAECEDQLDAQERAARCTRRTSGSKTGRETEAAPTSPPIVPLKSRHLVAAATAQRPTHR

Variants of: B1
Conditions: with dpoll_human POLL

Row | Variant | effect of a mutation on the interaction
1 | S688L | with no effect

Variants of: B2
Conditions: with tfpt_human TFPT

Row | Variant | effect of a mutation on the interaction
2 | S688L | with no effect
3 | R8Q | with no effect

Variants of: B3
Conditions: with byst_human BYSL

Row | Variant | effect of a mutation on the interaction
4 | D84N | disrupting interaction strength

Variants of: B4
Conditions: with traf2_human TRAF2, Q12933
Sequence of traf2_human TRAF2, Q12933 (Q12933 whole entry): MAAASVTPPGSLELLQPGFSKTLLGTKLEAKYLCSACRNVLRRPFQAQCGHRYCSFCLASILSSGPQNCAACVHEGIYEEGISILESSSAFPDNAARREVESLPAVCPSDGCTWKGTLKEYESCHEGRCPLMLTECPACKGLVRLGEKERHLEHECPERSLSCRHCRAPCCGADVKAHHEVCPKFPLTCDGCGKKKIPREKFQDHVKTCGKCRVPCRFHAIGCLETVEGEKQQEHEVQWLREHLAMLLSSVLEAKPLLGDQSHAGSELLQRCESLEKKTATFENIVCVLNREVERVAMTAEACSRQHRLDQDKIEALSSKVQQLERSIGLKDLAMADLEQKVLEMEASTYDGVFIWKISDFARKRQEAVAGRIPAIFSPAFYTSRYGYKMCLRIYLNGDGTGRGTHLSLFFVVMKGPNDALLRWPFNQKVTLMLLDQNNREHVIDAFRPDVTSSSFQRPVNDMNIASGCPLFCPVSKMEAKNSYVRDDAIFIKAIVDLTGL

Row | Variant | effect of a mutation on the interaction
5 | K406M | disrupting interaction strength

Variants of: B5
Conditions: with acy1_human ACY1, Q03154

Row | Variant | effect of a mutation on the interaction
6 | E381D | with no effect

Variants of: B6
Conditions: with mcsp_human SMCP

Row | Variant | effect of a mutation on the interaction
7 | R74Q | with no effect
8 | A115T | with no effect

Variants of: B7
Conditions: with txnd9_human TXNDC9, O14530

Row | Variant | effect of a mutation on the interaction
9 | A181T | disrupting interaction strength
10 | P49H | with no effect

Variants of: B8
Conditions: with kanl1_human KANSL1, Q7Z3B3

Row | Variant | effect of a mutation on the interaction
11 | T273A | with no effect
